The values below are quoted from earlier work in patent publication US20060189533A1, “Stable pharmaceutical dosage forms of teriparatide” (Nastech Pharmaceutical Company Inc., priority 2004, published 2006).

Like-named read-outs stand apart in the source and are kept apart here. Where no end group is shown, it is not given here.

For data set [1] the following is noted: anesthetized rats.
The conditions of data set [2]: up to 500 μg per day for 7 days; up to 1,000 μg per day for 3 months.
A further data set concerns ovariectomized rat. The note with it: ovariectomized rat model.

Regarding “human growth hormone: protein whose nasal bioavailability is reported to be modestly increased by N-acetyl-L-cysteine”, the nasal bioavailability in data set [1] (before increase by N-acetyl-L-cysteine) was 7.5%; in data set [1] (with N-acetyl-L-cysteine), 12.2%. On to `CC[C@H](C)[C@H](NC(=O)[C@H](CCC(=O)O)NC(=O)[C@H](CO)NC(=O)[C@@H](NC(=O)[C@@H](N)CO)C(C)C)C(=O)N[C@@H](CCC(N)=O)C(=O)N[C@@H](CC(C)C)C(=O)N[C@@H](CCSC)C(=O)N[C@@H](Cc1cnc[nH]1)C(=O)N[C@@H](CC(N)=O)C(=O)N[C@@H](CC(C)C)C(=O)NCC(=O)N[C@@H](CCCCN)C(=O)N[C@@H](Cc1cnc[nH]1)C(=O)N[C@@H](CC(C)C)C(=O)N[C@@H](CC(N)=O)C(=O)N[C@@H](CO)C(=O)N[C@@H](CCSC)C(=O)N[C@@H](CCC(=O)O)C(=O)N[C@@H](CCCN=C(N)N)C(=O)N[C@H](C(=O)N[C@@H](CCC(=O)O)C(=O)N[C@@H](Cc1c[nH]c2ccccc12)C(=O)N[C@@H](CC(C)C)C(=O)N[C@@H](CCCN=C(N)N)C(=O)N[C@@H](CCCCN)C(=O)N[C@@H](CCCCN)C(=O)N[C@@H](CC(C)C)C(=O)N[C@@H](CCC(N)=O)C(=O)N[C@@H](CC(=O)O)C(=O)N[C@H](C(=O)N[C@@H](Cc1cnc[nH]1)C(=O)N[C@@H](CC(N)=O)C(=O)N[C@@H](Cc1ccccc1)C(=O)O)C(C)C)C(C)C` [Teriparatide], for which the “safety of the intranasal route” value in data set [2] was “no safety concerns were noted”. For the compound “hPTH1-31NH2: linear PTH analogue with only AC-stimulating activity, SEQ ID NO: 3 (SVSEIQLMHNLGKHLNSMERVEWLRKKLQDV-NH2; listed as Homo sapiens)”, the “activity in the restoration of bone loss” value in the data set on ovariectomized rat is on record as “fully active”.
